Measured values as given in patent publication US12612465B2, “Formulations comprising PCSK9 specific monoclonal antibodies” (Amgen Inc., priority 2012, dated 2026).

Columns and labels:
[1] = target: T1, PCSK9 (Homo sapiens, UniProt Q8NBP7); assay: 12 week study in hypercholesterolemic patients unable to tolerate a statin (Example 23); format: in vivo; details: statin-intolerant, preliminary
T1 construct: endogenous in cells; host or cells: human subjects, in vivo
Method: It is planned to enroll 150 subjects. […] Randomization will be stratified by screening LDL-C level (<130 mg/dL [3.4 mmol/L] vs ≥130 mg/dL) and statin use at baseline (yes vs no). Randomization should occur within 5-10 days of the screening LDL-C evaluation used to determine eligibility. Monoclonal antibody, 21B12, and placebo will be blinded. Ezetimibe is not blinded. Study visits are at weeks 2, 4, 8, and 12. […] The end-of-study visit and the last evaluation of lipids is at week 12.
Males and females, ≥18 to ≤75 years of age, are eligible for this study. Subject must have tried at least 1 statin and have been unable to tolerate any dose or an increase in statin dose above the following total weekly maximum doses due to myalgia or myopathy: atorvastatin ≤70 mg, simvastatin ≤140 mg, pravastatin ≤140 mg, rosuvastatin ≤35 mg, lovastatin ≤140 mg, fluvastatin ≤280 mg. For unlisted statins, the maximal total weekly dose should not exceed 7 times the smallest available tablet size. Symptoms must have resolved when statin was discontinued or the dose reduced. If receiving statin (not exceeding the maximal dose defined above), bile-acid sequestering resin, and/or stanol therapy, the dose(s) must be stable for at least 4 weeks prior to LDL-C screening. If the subject is on ezetimibe at start of screening, ezetimibe must be discontinued for ≥4 weeks before LDL-C screening. Depending on their risk category (based on NCEP ATP III treatment goals) subjects must meet the following fasting LDL-C (by central laboratory) criteria at screening: ≥100 mg/dL (2.6 mmol/L) for subjects with diagnosed coronary heart disease (CHD) or CHD risk equivalent; ≥130 mg/dL (3.4 mmol/L) for subjects without diagnosed CHD or risk equivalent and 2 or more risk factors; ≥160 mg/dL (4.1 mmol/L) for subjects without diagnosed CHD or risk equivalent and with 1 or no risk factors. Fasting triglycerides must be ≤400 mg/dL (4.5 mmol/L) as determined by the central laboratory analysis at screening.

[2] = target: T1, PCSK9; assay: Phase 1b ascending multiple dose study in hyperlipidemic subjects on a statin; format: in vivo
Method: The study had seven cohorts. […] Cohort 6 was conducted in hypercholesterolemic subjects on high doses of a statin (atorvastatin 80 mg or rosuvastatin 40 mg).

[3] = Osmolality of 21B12 formulations; format: physicochemical
From the text: In certain embodiments, the pharmaceutical formulation is isotonic with an osmolality ranging from between about 250 to about 350 miliosmol/kg, e.g., about 250 mOsm/kg, about 260 mOsm/kg, about 270 mOsm/kg, about 280 mOsm/kg, about 290 mOsm/kg, about 300 mOsm/kg, about 310 mOsm/kg, about 320 mOsm/kg, about 330 mOsm/kg, about 340 mOsm/kg, or about 350 mOsm/kg, and including all values in between. As used herein, “osmolality” is the measure of the ratio of solutes to volume fluid. In other words, it is the number of molecules and ions (or molecules) per kilogram of a solution. Osmolality may be measured on an analytical instrument called an osmometer, such as Advanced Instruments 2020 Multi-sample Osmometer, Norwood, Mass. The Advanced Instruments 2020 Multi-sample Osmometer measures osmolality by using the Freezing Point Depression method. The higher the osmolytes in a solution, the temperature in which it will freeze drops. Osmolality may also be measured using any other methods and in any other units known in the art such as linear extrapolation.

[4] = 280 mg Q4W SC, end of dosing interval
[5] = 350 mg Q4W SC, end of dosing interval
[6] = cohorts 1-5, end of dosing interval

T1 sequence (Q8NBP7 153-692): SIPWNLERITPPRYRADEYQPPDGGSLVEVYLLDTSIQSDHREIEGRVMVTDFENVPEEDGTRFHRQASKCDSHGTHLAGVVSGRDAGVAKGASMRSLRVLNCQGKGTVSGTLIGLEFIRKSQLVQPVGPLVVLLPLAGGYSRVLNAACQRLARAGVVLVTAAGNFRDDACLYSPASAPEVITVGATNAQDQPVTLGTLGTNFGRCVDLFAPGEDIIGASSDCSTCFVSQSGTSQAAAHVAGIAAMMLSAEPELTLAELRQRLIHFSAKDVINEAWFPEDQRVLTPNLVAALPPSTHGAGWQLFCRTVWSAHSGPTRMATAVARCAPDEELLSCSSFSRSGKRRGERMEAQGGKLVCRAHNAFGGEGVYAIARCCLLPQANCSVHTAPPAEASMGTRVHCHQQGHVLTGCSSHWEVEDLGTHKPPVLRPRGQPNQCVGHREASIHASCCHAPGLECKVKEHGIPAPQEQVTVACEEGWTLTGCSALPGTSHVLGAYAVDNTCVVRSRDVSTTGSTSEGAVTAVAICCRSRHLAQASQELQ

B1: 21B12: human anti-PCSK9 monoclonal antibody, light/heavy variable region SEQ ID NO 23/49 (antibody, listed as Homo sapiens, V domains shown)
VH: QVQLVQSGAEVKKPGASVKVSCKASGYTLTSYGISWVRQAPGQGLEWMGWVSFYNGNTNYAQKLQGRGTMTTDPSTSTAYMELRSLRSDDTAVYYCARGYGMDVWGQGTTVTVSS
VL: QSALTQPASVSGSPGQSITISCTGTSSDVGGYNSVSWYQQHPGKAPKLMIYEVSNRPSGVSNRFSGSKSGNTASLTISGLQAEDEADYYCNSYTSTSMVFGGGTKLTVL
In the case of B1, the “LS mean percent increase from baseline in HDL-C” value (shortened to “LS mean percent increase”) [1, 4] is reported as 8.62%, the “LS mean percent reduction from baseline in LDL-C” value [1, 4] is reported as 38.79% and the “LS mean percent reduction from baseline in Lp(a)” value [1, 4] is reported as 27.38%. The “LS mean percent reduction from baseline in VLDL-C” value [1, 4] was 31.02%, the “LS mean percent reduction from baseline in non-HDL-C” value [1, 4] was 39.92% and the “LS mean percent reduction from baseline in total cholesterol” value [1, 4] was 31.03%. For the same molecule, the “LS mean percent reduction from baseline in triglycerides” value [1, 4] was 15.35%, the “LS mean percent increase” value [1, 5] was 4.62% and the “LS mean percent reduction from baseline in LDL-C” value [1, 5] was 40.01%. The “LS mean percent reduction from baseline in Lp(a)” value [1, 5] was 16.04%, the “LS mean percent reduction from baseline in VLDL-C” value [1, 5] was 38.14% and the “LS mean percent reduction from baseline in non-HDL-C” value [1, 5] was 42.86%. For the same molecule, the “LS mean percent reduction from baseline in total cholesterol” value [1, 5] was 34.46%, the “LS mean percent reduction from baseline in triglycerides” value [1, 5] was 19.22% and the “LS mean percent increase” value ([1]; 420 mg Q4W SC) was 7.55%. The “LS mean percent reduction from baseline in LDL-C” value ([1]; 420 mg Q4W SC) was 50.63%, the “LS mean percent reduction from baseline in Lp(a)” value ([1]; 420 mg Q4W SC) was 23.84% and the “LS mean percent reduction from baseline in VLDL-C” value ([1]; 420 mg Q4W SC) was 37.27%. For the same molecule, the “LS mean percent reduction from baseline in non-HDL-C” value ([1]; 420 mg Q4W SC) was 53.49%, the “LS mean percent reduction from baseline in total cholesterol” value ([1]; 420 mg Q4W SC) was 42.23% and the “LS mean percent reduction from baseline in triglycerides” value ([1]; 420 mg Q4W SC) was 19.55%. For the same molecule, the “suppression of PCSK9” value ([2]; cohort 3 (140 mg Q2W SC 3 times), preliminary) was “Near-complete suppression of PCSK9”, the “maximum reduction in LDL-C versus placebo” value ([2]; cohort 6, high-dose statins) was 73% and the “mean reduction in LDL-C vs placebo” value ([2]; cohort 6, high-dose statins, end of dosing interval after 3 biweekly doses) was 63%. For the same molecule, the “maximum LDL-C reduction versus placebo” value ([2]; cohort 7 heFH) was 70%, the “maximum reduction of ApoB versus placebo” value ([2]; cohort 7 heFH) was 57% and the “maximum reduction of non-HDL cholesterol versus placebo” value ([2]; cohort 7 heFH) was 67%. The “maximum total cholesterol reduction versus placebo” value ([2]; cohort 7 heFH) was 47%, the “mean reduction in LDL-C vs placebo” value ([2]; cohort 7 heFH, 140 mg SC Q2W 3 times, week 6) was 65% and the “mean reduction in ApoB levels vs placebo” value ([2]; cohort 7 heFH, week 6) was “up to 47%”. For the same molecule, the “mean reduction in lipoprotein a (Lp(a)) vs placebo” value ([2]; cohort 7 heFH, week 6) was 50%, the “mean reduction in non-HDL cholesterol vs placebo” value ([2]; cohort 7 heFH, week 6) was 61% and the “mean reduction in serum PCSK9 values vs placebo” value ([2]; cohort 7 heFH, week 6) was 78%. The “mean reduction in total cholesterol vs placebo” value ([2]; cohort 7 heFH, week 6) was “up to 42%”, the “maximum ApoB reduction vs placebo” value ([2]; cohorts 1-5) was “up to 59%” and the “mean LDL-C reduction vs placebo at maximal reduction” value ([2]; cohorts 1-5, low to moderate statin doses) was “up to 81%”. For the same molecule, the “mean ApoB reduction vs placebo” value [2, 6] was “up to 54%”, the “mean reduction of PCSK9 levels vs placebo” value [2, 6] was “up to 94%” and the “mean LDL-C reduction vs placebo at end of dosing interval” value ([2]; cohorts 1-5, week 6 after 3 biweekly SC doses) was at most 75%. For the same molecule, the “mean LDL-C reduction at end of dosing interval” value ([2]; cohorts 1-5, week 8 after 2 every 4 week SC doses) was at most 66%, the “mean Lp(a) reduction vs placebo” value ([2]; cohorts 1-6, end of dosing interval) was “up to 43%” and the “circulating PCSK9 after treatment” value ([2]; heFH subjects) was “undetectable”. The “plasma PCSK9” value ([2]; higher doses) was “undetectable”, the “serious AEs” value ([2]; repeated SC doses over 6 weeks) was “no serious AEs” and the “decrease in circulating LDL-C vs placebo” value ([2]; repeated SC doses over 6 weeks, low-to-moderate or high-dose statins) was “up to 81%”. The “LDL-C nadir observed after initial dosing” value ([2]; subjects on stable moderate statin doses, preliminary) was at most 2 weeks, the Osmolality ([3]; 73 mg/mL, 10 mM Na acetate, pH 5.2 +3% proline) was 253 mOsmol/kg and the Osmolality ([3]; 76 mg/mL, 10 mM Na acetate, pH 5.2) was 53 mOsmol/kg. It also gave an Osmolality ([3]; 116 mg/mL, 10 mM sodium acetate, pH 4.8, 50 mM methionine + 2% benzyl alcohol) of 329 mOsmol/kg, an Osmolality ([3]; 116 mg/mL, 10 mM sodium acetate, pH 4.8, 150 mM arginine) of 241 mOsmol/kg and an Osmolality ([3]; 116 mg/mL, 10 mM sodium acetate, pH 4.8, 1.5% proline + 1% benzyl alcohol) of 277 mOsmol/kg. For the same molecule, the Osmolality ([3]; 116 mg/mL, 10 mM sodium acetate, pH 4.8, 2% proline + 1% benzyl alcohol) was 313 mOsmol/kg, the Osmolality ([3]; 116 mg/mL, 10 mM sodium acetate, pH 4.8, no excipient) was 72 mOsmol/kg and the Osmolality ([3]; 117 mg/mL, 10 mM Na acetate, pH 4.5) was 59 mOsmol/kg. It also gave an Osmolality ([3]; 122 mg/mL, 10 mM Na acetate, pH 5.2 +3% proline) of 274 mOsmol/kg, an Osmolality ([3]; 130 mg/mL, 10 mM Na acetate, pH 5) of 59 mOsmol/kg and an Osmolality ([3]; 148 mg/mL, 10 mM Na acetate, pH 5.2 +3% proline) of 301 mOsmol/kg. For the same molecule, the Osmolality ([3]; 154 mg/mL, 10 mM Na acetate, pH 5.2) was “Did not freeze”, the Osmolality ([3]; […], 10 mM Na acetate, pH 4) was 59 mOsmol/kg and the Osmolality ([3]; […], 10 mM Na acetate, pH 5.2 +150 mM NaCl) was 346 mOsmol/kg. It also gave an Osmolality ([3]; […], 10 mM Na acetate, pH 5.2 +3% proline) of 252 mOsmol/kg, an Osmolality ([3]; […], 10 mM Na acetate, pH 5.5) of 64 mOsmol/kg and an Osmolality ([3]; […], 10 mM Na acetate, pH 5.5 +150 Mm methionine and 3% benzyl alcohol) of 520 mOsmol/kg.
